B1: Protein PTHB1 (Homo sapiens), Q3SYG4 (parent)
chain: MSLFKARDWWSTILGDKEEFDQGCLCLANVDNSGNGQDKIIVGSFMGYLRIFSPHPAKTGDGAQAEDLLLEVDLRDPVLQVEVGKFVSGTEMLHLAVLHSRKLCVYSVSGTLGNVEHGNQCQMKLMYEHNLQRTACNMTYGSFGGVKGRDLICIQSMDGMLMVFEQESYAFGRFLPGFLLPGPLAYSSRTDSFLTVSSCQQVESYKYQVLAFATDADKRQETEQQKLGSGKRLVVDWTLNIGEQALDICIVSFNQSASSVFVLGERNFFCLKDNGQIRFMKKLDWSPSCFLPYCSVSEGTINTLIGNHNNMLHIYQDVTLKWATQLPHIPVAVRVGCLHDLKGVIVTLSDDGHLQCSYLGTDPSLFQAPNVQSRELNYDELDVEMKELQKIIKDVNKSQGVWPMTEREDDLNVSVVVSPNFDSVSQATDVEVGTDLVPSVTVKVTLQNRVILQKAKLSVYVQPPLELTCDQFTFEFMTPDLTRTVSFSVYLKRSYTPSELEGNAVVSYSRPTDRNPDGIPRVIQCKFRLPLKLICLPGQPSKTASHKITIDTNKSPVSLLSLFPGFASQSDDDQVNVMGFHFLGGARITVLASKTSQRYRIQSEQFEDLWLITNELILRLQEYFEKQGVKDFACSFSGSIPLQEYFELIDHHFELRINGEKLEELLSERAVQFRAIQRRLLARFKDKTPAPLQHLDTLLDGTYKQVIALADAVEENQGNLFQSFTRLKSATHLVILLIALWQKLSADQVAILEAAFLPLQEDTQELGWEETVDAAISHLLKTCLSKSSKEQALNLNSQLNIPKDTSQLKKHITLLCDRLSKGGRLCLSTDAAAPQTMVMPGGCTTIPESDLEERSVEQDSTELFTNHRHLTAETPRPEVSPLQGVSE
partner: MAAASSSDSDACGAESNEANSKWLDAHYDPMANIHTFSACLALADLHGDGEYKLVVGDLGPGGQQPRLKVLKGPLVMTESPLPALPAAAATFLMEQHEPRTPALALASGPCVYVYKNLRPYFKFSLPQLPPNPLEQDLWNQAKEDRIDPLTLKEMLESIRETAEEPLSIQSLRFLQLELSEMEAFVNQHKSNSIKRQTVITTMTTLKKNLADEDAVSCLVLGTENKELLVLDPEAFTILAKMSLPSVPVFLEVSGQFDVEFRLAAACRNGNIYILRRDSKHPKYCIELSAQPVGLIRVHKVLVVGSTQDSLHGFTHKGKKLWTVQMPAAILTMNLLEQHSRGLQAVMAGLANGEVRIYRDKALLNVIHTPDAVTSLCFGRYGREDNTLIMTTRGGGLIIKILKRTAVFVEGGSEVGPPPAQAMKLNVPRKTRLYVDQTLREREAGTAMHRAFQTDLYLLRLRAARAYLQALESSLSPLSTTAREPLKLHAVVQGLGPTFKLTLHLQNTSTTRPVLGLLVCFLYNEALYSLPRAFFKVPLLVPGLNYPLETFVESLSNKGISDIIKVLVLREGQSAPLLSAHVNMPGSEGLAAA

Variants of: B1
Conditions: with bbs1_human BBS1, Q8NFJ9

Variant	effect of a mutation on the interaction
N796K	with no effect
N796A	with no effect
N796E	with no effect
L793A	with no effect
L793E	with no effect
L793K	with no effect
D773E	with no effect
D773K	with no effect
D773A	with no effect
A792K	with no effect
A792E	disrupting interaction strength
K786E	with no effect
K786A	with no effect
V772E	with no effect
V772A	with no effect
V772K	with no effect
K781E	with no effect
K781A	with no effect
I776K	with no effect
I776E	with no effect
I776A	with no effect
Q798K	with no effect
Q798A	with no effect

Variant	effect of a mutation on the interaction
Q798E	with no effect
Q791K	with no effect
Q791A	with no effect
Q791L	disrupting interaction strength
Q791E	with no effect
S797A	with no effect
S797E	with no effect
S797K	with no effect
N800A	with no effect
N800K	with no effect
N800E	with no effect
S777E	with no effect
S777K	with no effect
S777A	with no effect
A775K	with no effect
A775E	with no effect
A775T	disrupting interaction strength
L779K	with no effect
L779A	with no effect
L779E	with no effect
K789A	with no effect
K789E	with no effect
T771A	with no effect

Variant	effect of a mutation on the interaction
T771E	with no effect
T771S	disrupting interaction strength
T771K	with no effect
S785K	with no effect
S785E	with no effect
S785A	with no effect
C783A	with no effect
C783K	with no effect
C783E	with no effect
N794A	with no effect
N794E	with no effect
N794K	with no effect
L784A	with no effect
L784E	with no effect
L784K	with no effect
T782K	with no effect
T782E	with no effect
T782A	with no effect
I801A	with no effect
E790A	with no effect
E790K	with no effect
L795A	with no effect
L795E	with no effect

Variant	effect of a mutation on the interaction
L795K	with no effect
L780A	with no effect
L780K	with no effect
L780E	with no effect
S787A	with no effect
S787E	with no effect
S787K	with no effect
S788E	with no effect
S788K	with no effect
S788A	with no effect
E770A	with no effect
E770K	disrupting interaction strength
H778E	disrupting interaction strength
H778K	with no effect
H778A	with no effect
L799E	with no effect
L799K	with no effect
L799A	with no effect
E769K	with no effect
E769A	with no effect
A774K	with no effect
A774E	with no effect

— IntAct's records for PubMed 29039417
